Drawing on patent EP4545559A2 (INSTITUTO BUTANTAN, dated 2025), this text covers RU and Kd for 6 molecules.

Like-named read-outs stand apart in the source and are kept apart here.

In experiment [1] the target is T1, RBD Gamma (K417T/E484K/N501Y) (SARS-CoV-2, UniProt P0DTC2 319-541).
T1 construct: domain: RBD
The experiment in a line: SPR, antigen on CM5 sensor. A general note: Surface plasmon resonance follows binding to a sensor surface in real time, without labels.

The target in experiment [2] is T2, RBD Delta (L452R/T478K) (SARS-CoV-2, UniProt P0DTC2 319-541).
T2 construct: domain: RBD
The experiment in a line: SPR, antigen on CM5 sensor.

Experiment [3] concerns the target T3, RBD Omicron (G339D, S371L, S373P, S375F, K417N, N440K, G446S, S477N, T478K, E484A, Q493R, G496S, Q49 (SARS-CoV-2, UniProt P0DTC2 319-541)).
T3 construct: range 319-541
Briefly: SPR, antigen on CM5 sensor.

For experiment [4], the target named is T3, RBD Omicron (G339D, S371L, S373P, …). The experiment in a line: SPR kinetics; * dissociation in 360sec.
For experiment [5], the target named is T1, RBD Gamma (K417T/E484K/N501Y). Briefly: SPR kinetics; *** did not dissociate until 36000sec.
Experiment [6] has as its target T2, RBD Delta (L452R/T478K). The description is as above.
Experiment [7] deals with T1, RBD Gamma (K417T/E484K/N501Y). Briefly: SPR, antigen on CM5 sensor. This is another data set of the same source.
The target in experiment [8] is T2, RBD Delta (L452R/T478K). Briefly: SPR, antigen on CM5 sensor. This is another data set of the same source.
The target of experiment [9] is T3, RBD Omicron (G339D, S371L, S373P, …). Briefly: SPR, antigen on CM5 sensor. The source holds these as a separate data set.
For experiment [10], the target named is T1, RBD Gamma (K417T/E484K/N501Y). The experiment in a line: SPR kinetics; ** dissociation in 36000sec.
For experiment [11], the target named is T2, RBD Delta (L452R/T478K). The experiment in a line: SPR kinetics; *** did not dissociate until 36000sec. The source holds these as a separate data set.
Experiment [12] concerns the target T3, RBD Omicron (G339D, S371L, S373P, …). Described as above.
Experiment [13] addresses T1, RBD Gamma (K417T/E484K/N501Y). The experiment in a line: SPR, antigen on CM5 sensor. The source holds these as a separate data set.
Experiment [14] deals with T2, RBD Delta (L452R/T478K). The experiment in a line: SPR, antigen on CM5 sensor. The source holds these as a separate data set.
Experiment [15] deals with T3, RBD Omicron (G339D, S371L, S373P, …). Briefly: SPR, antigen on CM5 sensor. The source holds these as a separate data set.
Experiment [16] addresses T1, RBD Gamma (K417T/E484K/N501Y). The experiment in a line: SPR kinetics; * dissociation in 360sec.
The target in experiment [17] is T3, RBD Omicron (G339D, S371L, S373P, …). Briefly: SPR kinetics; * dissociation in 360sec. The source holds these as a separate data set.
The target of experiment [18] is T2, RBD Delta (L452R/T478K). Briefly: SPR kinetics; *** did not dissociate until 36000sec. The source holds these as a separate data set.
Experiment [19] deals with T1, RBD Gamma (K417T/E484K/N501Y). Briefly: SPR, antigen on CM5 sensor. This is another data set of the same source.
Experiment [20] deals with T2, RBD Delta (L452R/T478K). Briefly: SPR, antigen on CM5 sensor. The source holds these as a separate data set.
Experiment [21] deals with T3, RBD Omicron (G339D, S371L, S373P, …). Briefly: SPR, antigen on CM5 sensor. The source holds these as a separate data set.
In experiment [22] the target is T1, RBD Gamma (K417T/E484K/N501Y). The experiment in a line: SPR kinetics; * dissociation in 360sec. The source holds these as a separate data set.
Experiment [23] deals with T2, RBD Delta (L452R/T478K). The experiment in a line: SPR kinetics; * dissociation in 360sec.
The target of experiment [24] is T3, RBD Omicron (G339D, S371L, S373P, …). The experiment in a line: SPR kinetics; * dissociation in 360sec. This is another data set of the same source.
Experiment [25] has as its target T2, RBD Delta (L452R/T478K). Briefly: SPR, antigen on CM5 sensor. The source holds these as a separate data set.
The target of experiment [26] is T2, RBD Delta (L452R/T478K). Briefly: SPR kinetics; * dissociation in 360sec. This is another data set of the same source.
Experiment [27] concerns the target T1, RBD Gamma (K417T/E484K/N501Y). Briefly: SPR, antigen on CM5 sensor. The source holds these as a separate data set.
Experiment [28] addresses T2, RBD Delta (L452R/T478K). Briefly: SPR, antigen on CM5 sensor. The source holds these as a separate data set.
Experiment [29] has as its target T3, RBD Omicron (G339D, S371L, S373P, …). The experiment in a line: SPR, antigen on CM5 sensor. The source holds these as a separate data set.
Experiment [30] has as its target T1, RBD Gamma (K417T/E484K/N501Y). Briefly: SPR kinetics; *** did not dissociate until 36000sec. This is another data set of the same source.
Experiment [31] concerns the target T2, RBD Delta (L452R/T478K). The description is as above. This is another data set of the same source.
The target in experiment [32] is T3, RBD Omicron (G339D, S371L, S373P, …). Described as above. This is another data set of the same source.

B1: Monoclonal antibody S.9.1.C9 (antibody, V domains shown)
VH: QVQLVESGGGVVQPGRSLGLSCAVSGFTFSNYGMDWVRQAPGKGLEWVAVTSYDGSNKYYADSVKGRFTISRDNSKNTLYLQMNSLRTEDTAVYYCAKHGGGPYCGGGTCYLAYFDYWGQGTLVTVSS
VL: DIQMTQSPSSLSASVRDRVTITCQASQDISKFLNWYQQKPGKAPKLLIYDASNLETGVPSRFSGSGSGTDFTFTISSLQPEDIATYYCQQYDNLPITFGQGTRLEIKR
notes: also called mAb S.9.1.C9
For orientation: Kd means the constant that tells how readily two partners part at equilibrium. A lower Kd goes with a tighter complex. For B1, the results for the RU (in [1]; with RBD Delta (L452R/T478K) [2]; in experiment [3]) were 294 RU, 636 RU and 137 RU, respectively. Moreover, the Kd in [4] is 241 pM; in [5], about 362 pM; in the experiment with RBD Delta (L452R/T478K) [6] it was about 455 pM.

B2: Monoclonal antibody S.9.4.A9 (antibody, V domains shown)
VH: QVQLVQSGAEVKKPGASVKVSCKASGYTFISYGISWVRQAPGQELEWMGWISAYNGNTNYAQKLQGRVTMTRDTSTTTAYMELRSLRSDDTAVYYCARVLGGLWFGEPKARHSDYWGQGTLVTVSS
VL: IQMTQSPSSLSASVGDRVTITCRASQGINNYLAWFQQKPGKAPKSLIYAASSLHSGVPSRFSGSGSGTDFTLTISSLQPEDFATYYCQQYNTYPITFGQGTRLEIK
notes: also called mAb S.9.4.A9
With B2, the RU was 3 RU in [7], 4 RU with RBD Delta (L452R/T478K) [8] and 1 RU in [9]. Also, the Kd in [10] is 254 pM; with RBD Delta (L452R/T478K) [11] it was about 31.6 pM; in experiment [12] it was about 79600 pM.

B3: Monoclonal antibody S.9.1.H5 (antibody, V domains shown)
VH: QVQLVESGGGVVQPGRSLRLSCAASGFTFSRYGMHWVRQAPGKGLEWVALISYDGTNKYYADSVKGRFTISRDNSKSTQYLQMNSLRAEDTAVYFCAKESFGYASGSYYFDYWGQGTLVTVSS
VL: DIQMTQSPSSLSASVGDRITITCQASQDISNYLNWYQQKPGKAPKLMIYDASNLETGVPSRFSGSGAGTDFTFTISSLQPEDFARYYCQQYGNLPLTFGGGTKVEIK
notes: also called mAb S.9.1.H5
With B3, the RU in experiment [13] was 376 RU; with RBD Delta (L452R/T478K) [14] it was 942 RU; in experiment [15], 175 RU. Moreover, the Kd in [16] is 1110 pM; in experiment [17] it was 1830 pM; with RBD Delta (L452R/T478K) [18] it was about 197 pM.

B4: Monoclonal antibody S.11.1.F4 (antibody, V domains shown)
VH: QVQLVQSGAEVKKPGSSVRVSCKASAGTFSSYAIRWVRQAPGQGLEWMGTIIPIFGTTNYAQKFQGRVSITADESTNTAYMELSSLRSEDTAVYYCARDLETSPLYGLDVWGQGTTVTVSS
VL: DIQMTQSPSSLSASVGDRVTITCRASQTISRYLNWYQQKPGKPPKLLIFAASTLHSGVPSRFSGSGSGTEFTLTITSLHPDDFSTYYCQQTYSSPHTFGQGTKLEIK
notes: also called S.11.1.F4 mAb
B4: the RU in [19] came to 218 RU; with RBD Delta (L452R/T478K) [20], 743 RU; in experiment [21], 153 RU. The Kd in experiment [22] amounted to 1210 pM; in the experiment with RBD Delta (L452R/T478K) [23], 1890 pM; in experiment [24] it was 584 pM.

B5: Monoclonal antibody S.11.1.H1 (antibody, V domains shown)
VH: QVQLVESGGGVVQPGRSLTLSCSASGFPFSTYVMHWVRQAPGKGLEWVAVISSDGSNENYADSVKGRFTVSRDNFGSTLFLQMSTLRPDDTAVYYCARTAGRGYADRGRLDTWGQGTLVTVSS
VL: not shown
notes: also called mAb S.11.1.H1
B5: the RU with RBD Delta (L452R/T478K) [25] amounted to 913 RU. Moreover, in the experiment with RBD Delta (L452R/T478K) [26], binding was characterised by a dissociation constant (Kd) of 548 pM.

B6: Monoclonal antibody S.9.2.B8 (antibody, V domains shown)
VH: EVQLVETGGGLIQPGGSLRLSCAASGLIVSSNYMTWVRQAPGKGLEWVSVLYSGGTTYYADSVKGRVTISRDNSKNTLYLQVNSLTVADTAVYYCARDLADRGGMDVWGQGTTVTVSS
VL: SYELTQPPSVSVAPGQTARITCGGNNIGSQSVHWYQQKPGQAPVLVVYDDSDRPSGIPERFSGSKSGNMATLTISRVEAGDEADYYCQVWDSSSDHVVFGGGTKLTVL
notes: also called mAb S.9.2.B8
Take B6: the values for the RU (in experiment [27]; with RBD Delta (L452R/T478K) [28]; in [29]) were 74 RU, 163 RU and 22 RU, respectively. Also, the Kd in experiment [30] was about 1170 pM; in the experiment with RBD Delta (L452R/T478K) [31], about 0.836 pM; in experiment [32], about 1770 pM.
